This note sets out measurements from US20250376533A1.

Like-named read-outs stand apart in the source and are kept apart here.

In assay [1] the target is cynomolgus CD40 antigen (ACROBiosystems) (cynomolgus) (UniProt G7PG38). Nature of the assay: ELISA, coated antigen. On the technique in general: An ELISA detects its analyte on a solid surface through an enzyme-linked reagent.
Assay [2] concerns the target human CD40 antigen (ACROBiosystems) (human) (UniProt P25942). Nature of the assay: ELISA, coated antigen.
The target of assay [3] is cynomolgus CD40 antigen (ACROBiosystems) (cynomolgus) (UniProt G7PG38). Nature of the assay: ELISA, coated antigen. This is another data set of the same source.
Assay [4] concerns the target human CD40 antigen (ACROBiosystems) (human) (UniProt P25942). Nature of the assay: ELISA, coated antigen. This is another data set of the same source.
Assay [5] addresses CD40 on HEK-Blue CD40L cells (InvivoGen) (UniProt P25942). Nature of the assay: cell-based or functional assay.
Assay [6] addresses cynomolgus PD-L1 antigen (ACROBiosystems) (cynomolgus) (UniProt G7PSE7). Nature of the assay: ELISA, coated antigen.
Assay [7] concerns the target human PD-L1 antigen (ACROBiosystems) (human) (UniProt Q9NZQ7). Nature of the assay: ELISA, coated antigen.
For assay [8] the target is unchanged. Nature of the assay: ELISA, coated antigen. The source holds these as a separate data set.
Assay [9] shares this target. Nature of the assay: BLI (Gator), antibody captured on PA probe, human PD-L1 in solution.

Sequence of human PD-L1 antigen (ACROBiosystems) (human) (Q9NZQ7 19-238 limits assumed): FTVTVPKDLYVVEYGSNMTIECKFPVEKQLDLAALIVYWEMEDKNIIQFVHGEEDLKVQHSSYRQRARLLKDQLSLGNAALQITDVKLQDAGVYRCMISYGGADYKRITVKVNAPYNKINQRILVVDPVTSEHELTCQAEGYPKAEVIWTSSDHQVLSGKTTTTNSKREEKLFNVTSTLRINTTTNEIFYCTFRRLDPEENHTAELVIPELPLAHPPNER
Sequence of CD40 on HEK-Blue CD40L cells (InvivoGen) (P25942 21-277 limits assumed): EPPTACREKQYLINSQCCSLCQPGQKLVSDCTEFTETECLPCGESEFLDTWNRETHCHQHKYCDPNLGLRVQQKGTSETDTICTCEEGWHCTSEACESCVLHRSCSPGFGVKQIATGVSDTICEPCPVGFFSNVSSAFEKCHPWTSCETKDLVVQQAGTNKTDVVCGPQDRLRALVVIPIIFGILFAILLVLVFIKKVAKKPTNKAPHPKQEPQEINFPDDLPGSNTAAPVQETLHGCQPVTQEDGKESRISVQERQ
Sequence of control CD40 monoclonal antibody CP-870893 (IMGT database ID 10523) (VH): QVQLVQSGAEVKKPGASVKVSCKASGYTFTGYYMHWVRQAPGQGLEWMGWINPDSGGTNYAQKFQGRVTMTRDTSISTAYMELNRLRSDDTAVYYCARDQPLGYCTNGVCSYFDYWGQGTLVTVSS
Sequence of control CD40 monoclonal antibody CP-870893 (IMGT database ID 10523) (VL): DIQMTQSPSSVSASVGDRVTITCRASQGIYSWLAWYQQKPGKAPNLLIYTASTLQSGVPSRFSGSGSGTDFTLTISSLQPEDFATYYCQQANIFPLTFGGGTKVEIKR
Sequence of human CD40 antigen (ACROBiosystems) (human) (P25942 21-193 limits assumed): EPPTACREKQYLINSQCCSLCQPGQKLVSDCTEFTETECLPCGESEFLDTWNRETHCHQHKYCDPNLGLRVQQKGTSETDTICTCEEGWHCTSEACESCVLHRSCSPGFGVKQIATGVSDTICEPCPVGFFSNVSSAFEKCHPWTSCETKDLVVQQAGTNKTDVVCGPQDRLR
Sequence of cynomolgus CD40 antigen (ACROBiosystems) (cynomolgus) (G7PG38 entry or part of it): as the sequence (P25942 21-193 limits assumed) above, with G43S, H56R, R70Q, W89L, A95S, L101P, S106L, H142R, L172Q counted along it
Sequence of cynomolgus PD-L1 antigen (ACROBiosystems) (cynomolgus) (G7PSE7 entry or part of it): as the sequence (Q9NZQ7 19-238 limits assumed) above, with A33T, A34S, S62N, R68Q, Q82R, F173L, T185A, T192I, H215L counted along it

As a reminder, the EC50 is the concentration needed to bring the measured effect to its halfway point. A lower EC50 goes with greater potency. For “control CD40 monoclonal antibody CP-870893 (IMGT database ID 10523)”, the EC50 was 0.018 nM in assay [1], 0.018 nM in assay [2], 0.016 nM in assay [3] and 0.016 nM in [4]. For the same substance, the CD40 agonistic activity (A)/(B) Ratio, EC50 without over with CHO/PD-L1 in [5] is 0.9. The substance further displayed a CD40 agonistic activity EC50 (nM) with CHO/PD-L1 (B), SEAP reporter in assay [5] of 0.123 nM. In addition, the CD40 agonistic activity EC50 (nM) without CHO/PD-L1 (A), SEAP reporter in assay [5] stood at 0.109 nM.

What is called koff is the first-order rate constant of dissociation. The low end stands for a long-lived complex, the high end for a short-lived complex. For “control PD-L1 monoclonal antibody Durvalumab (IMGT database ID 10010)”, the EC50 in assay [6] came to 0.017 nM; in assay [7], 0.014 nM; in [8], 0.012 nM. This substance came in with a koff in assay [9] of 0.00265 s⁻¹.
